Data published in patent US20070196376A1 (AstraZeneca / MedImmune, published 2007).
Each block holds one binder with its values, some of them ahead of it.

What was measured:
[1] = molecular target: T1, human insulin-like growth factor-I (IGF-I) (human, UniProt P05019 49-118); assay: cell-based or functional assay
[2] = molecular target: T2, human insulin-like growth factor-II (IGF-II) (human, UniProt P01344 25-91); assay: cell-based or functional assay
[3] = molecular target: T1, human insulin-like growth factor-I …; assay: cell-based or functional assay; remark: listed apart in the source
[4] = molecular target: T2, human insulin-like growth factor-II …; assay: cell-based or functional assay; remark: listed apart in the source
[5] = molecular target: T1, human insulin-like growth factor-I …; assay: cell-based or functional assay; remark: listed apart in the source
[6] = molecular target: T2, human insulin-like growth factor-II …; assay: cell-based or functional assay; remark: listed apart in the source
[7] = molecular target: T2, human insulin-like growth factor-II …; assay: cell-based or functional assay; remark: listed apart in the source
[8] = molecular target: mouse IGF-I (mouse, UniProt P05017 49-118); assay: cell-based or functional assay
[9] = molecular target: mouse IGF-II (mouse, UniProt P09535 25-91); assay: cell-based or functional assay
[10] = molecular target: T1, human insulin-like growth factor-I …; assay: Biacore low-resolution analysis, IGF-I
[11] = molecular target: T2, human insulin-like growth factor-II …; assay: Biacore low-resolution analysis, IGF-II
[12] = molecular target: T1, human insulin-like growth factor-I …; assay: Biacore low-resolution screen, mAb captured, IGF-I injected
[13] = molecular target: T2, human insulin-like growth factor-II …; assay: Biacore low-resolution screen, mAb captured, IGF-II injected
[14] = molecular target: T1, human insulin-like growth factor-I …; assay: Biacore high-resolution, mAb captured, IGF-I injected over a range of concentrations
[15] = molecular target: T2, human insulin-like growth factor-II …; assay: Biacore high-resolution, mAb captured, IGF-II injected over a range of concentrations
[16] = molecular target: T3, human insulin (human, UniProt P01308 25-54; P01308 90-110, limits assumed); assay: Biacore, mAb on CM5 chip, insulin injected
T3 construct: The mature hormone has an A and a B chain cut from the precursor; also called recombinant insulin; hu-Insulin

[17] = molecular target: T4, Recombinant human IGF-I (insulin-like growth factor-I) (human, UniProt P05019 49-118); assay: limited antigen ELISA, supernatant 1:25
T4 construct: Bought; also called IGF1; IGF-1

[18] = molecular target: T5, Recombinant human IGF-II (insulin-like growth factor-II) (human, UniProt P01344 25-91); assay: limited antigen ELISA, supernatant 1:25
T5 construct: Bought; also called IGF2; IGF-2

[19] = molecular target: T6, IGF-I/IGFBP-3 complex (UniProt P05019 49-118); assay: Biacore, mAb immobilised, preformed complex injected
T6 construct: Preformed non-covalent complex; IGF-I 99.97% complexed by IGFBP-3; also called complexed IGF-I/IGFBP-3

[20] = molecular target: T7, IGF-II/IGFBP-3 complex (UniProt P01344 25-91); assay: as above
T7 construct: Preformed non-covalent complex; IGF-II 99.97% complexed by IGFBP-3; also called complexed IGF-II/IGFBP-3

- % MAX Activation, mean (n = 2), IGF-I pTYR of hIGF-IR in NIH3T3 cells [1]: 16.9%
- EC50 (nM), mean (n = 2), IGF-I pTYR of hIGF-IR in NIH3T3 cells [1]: 14.5 nM
- % MAX Activation, mean (n = 2), IGF-II pTYR of hIGF-IR in NIH3T3 cells [2]: 15.9%
- EC50 (nM), mean (n = 2), IGF-II pTYR of hIGF-IR in NIH3T3 cells [2]: 3 nM
- % Inhibition, mean (n = 3), IGF-I Proliferation Assay, NIH3T3/hIGF-IR cells [3]: 72.4%
- EC50 (nM), mean (n = 3), IGF-I Proliferation Assay, NIH3T3/hIGF-IR cells [3]: 38.9 nM
- % Inhibition, mean (n = 2), IGF-II Proliferation Assay, NIH3T3/hIGF-IR cells [4]: 79.2%
- EC50 (nM), mean (n = 2), IGF-II Proliferation Assay, NIH3T3/hIGF-IR cells [4]: 22 nM
- EC50 (nM), n = 1, IGF-I pTYR, BxPC3 cells [5]: 7.5 nM
- EC50 (nM), n = 2, IGF-I pTYR, BxPC3 cells [5]: 5.3 nM
- Max % Inhibition (333.3 nM), n = 1, IGF-I pTYR, BxPC3 cells [5]: 95.7%
- Max % Inhibition (333.3 nM), n = 2, IGF-I pTYR, BxPC3 cells [5]: 95.2%
- EC50 (nM), n = 2, IGF-II pTYR, BxPC3 cells [6]: 2.6 nM
- Max % Inhibition (133.3 nM), n = 2, IGF-II pTYR, BxPC3 cells [6]: 91.3%
- Max % Inhibition (333.3 nM), n = 1, IGF-II pTYR, BxPC3 cells [6]: 100%
- EC50 (nM), n = 1, IGF-II Proliferation, BxPC3 cells [7]: 0.5 nM
- EC50 (nM), n = 2, IGF-II Proliferation, BxPC3 cells [7]: 4.4 nM
- Max % Inhibition (133.3 nM), n = 2, IGF-II Proliferation, BxPC3 cells [7]: 105%
- Max % Inhibition (333.3 nM), n = 1, IGF-II Proliferation, BxPC3 cells [7]: 128%
- Mouse IGF-I EC50 (nM), n = 1, phosphorylation of hIGF-IR in NIH3T3 cells [8]: 6.7 nM
- Mouse IGF-I EC50 (nM), n = 2, phosphorylation of hIGF-IR in NIH3T3 cells [8]: 10.6 nM
- Mouse IGF-II EC50 (nM), n = 1, phosphorylation of hIGF-IR in NIH3T3 cells [9]: 5.4 nM
- Mouse IGF-II EC50 (nM), n = 2, phosphorylation of hIGF-IR in NIH3T3 cells [9]: 8.7 nM
- Kd [10]: 0.935 nM
- Kd [11]: 0.123 nM
- Kd [12]: 0.935 nM
- koff [12]: 0.0043 s⁻¹
- kon [12]: 4.6e+06 M⁻¹ s⁻¹
- Kd [13]: 0.123 nM
- koff [13]: 0.00043 s⁻¹
- kon [13]: 3.5e+06 M⁻¹ s⁻¹
- Kd [14]: 0.452 nM
- Kd [15]: 0.0474 nM
B1: mAb 7.251.3 (antibody, V domains shown)
VH: QVQLQESGPGLVKPSETLSLTCTVSGGSISSYYWSWIRQPPGKGLEWIGYFFYSGYTNYNPSLKSRVTISVDTSKNQFSLKLSSVTAADTAVYYCACITGTTKGGMDVWGQGTTVTVSS
VL: QSVLTQPPSVSGAPGQRVTISCTGSSSNIGAGYDVHWYQQLPGTAPKLLIYGNNNRPSGVPDRFSGSKSGTSASLAITGLQADDEADYYCQSFDSSLSGSVFGGGTKLTVLG
notes: Fully human XenoMouse hybridoma mAb, lambda light chain (V1-13/JL2); also called ATCC PTA-7422

- binding result [16]: no binding (tested: 502 nM)
- LA OD, IGF1 2 ng/ml [17]: 0.21 OD 450 nm
- LA OD, IGF1 4 ng/ml [17]: 0.44 OD 450 nm
- LA OD, IGF2 2 ng/ml [18]: 1.07 OD 450 nm
- LA OD, IGF2 4 ng/ml [18]: 1.84 OD 450 nm
- Kd [19]: > 1000 nM
- Kd [20]: > 1000 nM
B2: mAb 7.34.1 (ATCC Accession Number PTA-7423) (antibody, V domains shown)
VH: QVQLQESGPGLVKPSETLSLTCTVSGGSISSYYWSWIRQPPGRGLEWIGYFFYSGYTNYNPSLKSRVTMSVDTSKNQFSLKLSSVTAADTAVYYCACITGTTKGGMDVWGQGATVTVSS
VL: QSVLTQAPSVSGAPGQRVTISCTGRSSNIGAGYDVHWYQQFPGTAPKLLIYGNSNRPSGVPDRFSGSKSGTSASLAITGLQAEDEADYYCQSYDSSLSGSVFGGGTKLTVLG
notes: Fully human, lambda light chain (V1-13/JL2)

- binding result [16]: no binding (tested: 502 nM)
- LA OD, IGF1 2 ng/ml [17]: 1.09 OD 450 nm
- LA OD, IGF1 4 ng/ml [17]: 1.31 OD 450 nm
- LA OD, IGF2 2 ng/ml [18]: 1.02 OD 450 nm
- LA OD, IGF2 4 ng/ml [18]: 1.53 OD 450 nm
- Kd [19]: > 1000 nM
- Kd [20]: > 1000 nM
B3: mAb 7.251.3 (ATCC Accession Number PTA-7422) (antibody, V domains shown)
VH: QVQLQESGPGLVKPSETLSLTCTVSGGSISSYYWSWIRQPPGKGLEWIGYFFYSGYTNYNPSLKSRVTISVDTSKNQFSLKLSSVTAADTAVYYCACITGTTKGGMDVWGQGTTVTVSS
VL: QSVLTQPPSVSGAPGQRVTISCTGSSSNIGAGYDVHWYQQLPGTAPKLLIYGNNNRPSGVPDRFSGSKSGTSASLAITGLQADDEADYYCQSFDSSLSGSVFGGGTKLTVLG
notes: as for B2
